According to US20220204580A1 (AstraZeneca / MedImmune, published 2022):
Numbered stars: 1 amine (or outer) side, 2 acyl side, 3 side chain; on linkers, the order of the positions; unused ones are H or OH. Bridge positions count the residues as written; N and C are the ends. Square brackets hold non-standard residues; d marks the D form. Side chains are listed from the residue outwards. Ends that are not written are not given here. * marks the point of attachment. C18 diacid = O=C(O)CCCCCCCCCCCCCCCCC(=O)*; γGlu = O=C(O)[C@H](CCC(=O)[*:2])N[*:1]; Aib = CC(C)(N)C(=O)O

T1: human calcitonin receptor (human, UniProt P30988 25-474)
T1 sequence (looked up): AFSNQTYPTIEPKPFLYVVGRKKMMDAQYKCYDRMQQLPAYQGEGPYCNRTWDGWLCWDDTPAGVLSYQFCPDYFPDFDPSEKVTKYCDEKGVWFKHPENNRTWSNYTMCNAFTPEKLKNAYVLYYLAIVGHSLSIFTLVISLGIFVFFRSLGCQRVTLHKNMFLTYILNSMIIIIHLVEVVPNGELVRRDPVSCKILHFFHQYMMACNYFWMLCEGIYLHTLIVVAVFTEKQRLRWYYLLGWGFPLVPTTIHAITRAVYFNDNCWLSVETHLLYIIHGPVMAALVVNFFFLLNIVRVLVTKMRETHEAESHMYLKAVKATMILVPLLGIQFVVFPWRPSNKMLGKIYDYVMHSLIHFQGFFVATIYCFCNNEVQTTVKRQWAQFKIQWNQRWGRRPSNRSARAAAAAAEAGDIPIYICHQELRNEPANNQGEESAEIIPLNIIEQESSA

T2: human amylin receptor (calcitonin receptor co-expressed with receptor activity modifying protein, RAMP3) (human, UniProt P30988 25-474; O60896 24-148)
T2 sequence (looked up) 1: T1 sequence (looked up)
T2 sequence (looked up) 2: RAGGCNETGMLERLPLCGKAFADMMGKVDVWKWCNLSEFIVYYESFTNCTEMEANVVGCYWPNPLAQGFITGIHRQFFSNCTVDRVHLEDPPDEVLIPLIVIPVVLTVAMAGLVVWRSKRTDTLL

B1: Peptide 60 (SEQ ID NO: 60) (peptide)
peptide: K([γGlu-C18 diacid])CNTATCATQRLANFLVHSS[Aib]NFGPIL[dP]PTNVGSNTY-NH2
modifications: disulfide 2-7; N-terminus assumed
SMILES: CC[C@H](C)[C@H](NC(=O)[C@@H]1CCCN1C(=O)CNC(=O)[C@H](Cc1ccccc1)NC(=O)[C@H](CC(N)=O)NC(=O)C(C)(C)NC(=O)[C@H](CO)NC(=O)[C@H](CO)NC(=O)[C@H](Cc1c[nH]cn1)NC(=O)[C@@H](NC(=O)[C@H](CC(C)C)NC(=O)[C@H](Cc1ccccc1)NC(=O)[C@H](CC(N)=O)NC(=O)[C@H](C)NC(=O)[C@H](CC(C)C)NC(=O)[C@H](CCCNC(=N)N)NC(=O)[C@H](CCC(N)=O)NC(=O)[C@@H](NC(=O)[C@H](C)NC(=O)[C@@H]1CSSC[C@H](NC(=O)[C@@H](N)CCCCNC(=O)CC[C@H](NC(=O)CCCCCCCCCCCCCCCCC(=O)O)C(=O)O)C(=O)N[C@@H](CC(N)=O)C(=O)N[C@@H]([C@@H](C)O)C(=O)N[C@@H](C)C(=O)N[C@@H]([C@@H](C)O)C(=O)N1)[C@@H](C)O)C(C)C)C(=O)N[C@@H](CC(C)C)C(=O)N1CCC[C@@H]1C(=O)N1CCC[C@H]1C(=O)N[C@H](C(=O)N[C@@H](CC(N)=O)C(=O)N[C@H](C(=O)NCC(=O)N[C@@H](CO)C(=O)N[C@@H](CC(N)=O)C(=O)N[C@H](C(=O)N[C@@H](Cc1ccc(O)cc1)C(N)=O)[C@@H](C)O)C(C)C)[C@@H](C)O
B2: Peptide 62 (SEQ ID NO: 62) (peptide)
peptide: K([γGlu-C18 diacid])CNTATCATQRLANF[dL]VHSS[Aib]NFGPILPPTNVGSNTY-NH2
modifications: disulfide 2-7; N-terminus assumed
SMILES: CC[C@H](C)[C@H](NC(=O)[C@@H]1CCCN1C(=O)CNC(=O)[C@H](Cc1ccccc1)NC(=O)[C@H](CC(N)=O)NC(=O)C(C)(C)NC(=O)[C@H](CO)NC(=O)[C@H](CO)NC(=O)[C@H](Cc1c[nH]cn1)NC(=O)[C@@H](NC(=O)[C@@H](CC(C)C)NC(=O)[C@H](Cc1ccccc1)NC(=O)[C@H](CC(N)=O)NC(=O)[C@H](C)NC(=O)[C@H](CC(C)C)NC(=O)[C@H](CCCNC(=N)N)NC(=O)[C@H](CCC(N)=O)NC(=O)[C@@H](NC(=O)[C@H](C)NC(=O)[C@@H]1CSSC[C@H](NC(=O)[C@@H](N)CCCCNC(=O)CC[C@H](NC(=O)CCCCCCCCCCCCCCCCC(=O)O)C(=O)O)C(=O)N[C@@H](CC(N)=O)C(=O)N[C@@H]([C@@H](C)O)C(=O)N[C@@H](C)C(=O)N[C@@H]([C@@H](C)O)C(=O)N1)[C@@H](C)O)C(C)C)C(=O)N[C@@H](CC(C)C)C(=O)N1CCC[C@H]1C(=O)N1CCC[C@H]1C(=O)N[C@H](C(=O)N[C@@H](CC(N)=O)C(=O)N[C@H](C(=O)NCC(=O)N[C@@H](CO)C(=O)N[C@@H](CC(N)=O)C(=O)N[C@H](C(=O)N[C@@H](Cc1ccc(O)cc1)C(N)=O)[C@@H](C)O)C(C)C)[C@@H](C)O
B3: Peptide 63 (SEQ ID NO: 63) (peptide)
peptide: K([γGlu-C18 diacid])CNTATCATQRLANFLVHSS[Aib]NFGPILPPTRVGSNTY-NH2
modifications: disulfide 2-7; N-terminus assumed
SMILES: CC[C@H](C)[C@H](NC(=O)[C@@H]1CCCN1C(=O)CNC(=O)[C@H](Cc1ccccc1)NC(=O)[C@H](CC(N)=O)NC(=O)C(C)(C)NC(=O)[C@H](CO)NC(=O)[C@H](CO)NC(=O)[C@H](Cc1c[nH]cn1)NC(=O)[C@@H](NC(=O)[C@H](CC(C)C)NC(=O)[C@H](Cc1ccccc1)NC(=O)[C@H](CC(N)=O)NC(=O)[C@H](C)NC(=O)[C@H](CC(C)C)NC(=O)[C@H](CCCNC(=N)N)NC(=O)[C@H](CCC(N)=O)NC(=O)[C@@H](NC(=O)[C@H](C)NC(=O)[C@@H]1CSSC[C@H](NC(=O)[C@@H](N)CCCCNC(=O)CC[C@H](NC(=O)CCCCCCCCCCCCCCCCC(=O)O)C(=O)O)C(=O)N[C@@H](CC(N)=O)C(=O)N[C@@H]([C@@H](C)O)C(=O)N[C@@H](C)C(=O)N[C@@H]([C@@H](C)O)C(=O)N1)[C@@H](C)O)C(C)C)C(=O)N[C@@H](CC(C)C)C(=O)N1CCC[C@H]1C(=O)N1CCC[C@H]1C(=O)N[C@H](C(=O)N[C@@H](CCCNC(=N)N)C(=O)N[C@H](C(=O)NCC(=O)N[C@@H](CO)C(=O)N[C@@H](CC(N)=O)C(=O)N[C@H](C(=O)N[C@@H](Cc1ccc(O)cc1)C(N)=O)[C@@H](C)O)C(C)C)[C@@H](C)O
B4: Peptide 59 (SEQ ID NO: 59) (peptide)
peptide: K([γGlu-C18 diacid])CNTATCATQRLANFLVHSS[Aib]NFGPI[dL]PPTNVGSNTY-NH2
modifications: disulfide 2-7; N-terminus assumed
SMILES: CC[C@H](C)[C@H](NC(=O)[C@@H]1CCCN1C(=O)CNC(=O)[C@H](Cc1ccccc1)NC(=O)[C@H](CC(N)=O)NC(=O)C(C)(C)NC(=O)[C@H](CO)NC(=O)[C@H](CO)NC(=O)[C@H](Cc1c[nH]cn1)NC(=O)[C@@H](NC(=O)[C@H](CC(C)C)NC(=O)[C@H](Cc1ccccc1)NC(=O)[C@H](CC(N)=O)NC(=O)[C@H](C)NC(=O)[C@H](CC(C)C)NC(=O)[C@H](CCCNC(=N)N)NC(=O)[C@H](CCC(N)=O)NC(=O)[C@@H](NC(=O)[C@H](C)NC(=O)[C@@H]1CSSC[C@H](NC(=O)[C@@H](N)CCCCNC(=O)CC[C@H](NC(=O)CCCCCCCCCCCCCCCCC(=O)O)C(=O)O)C(=O)N[C@@H](CC(N)=O)C(=O)N[C@@H]([C@@H](C)O)C(=O)N[C@@H](C)C(=O)N[C@@H]([C@@H](C)O)C(=O)N1)[C@@H](C)O)C(C)C)C(=O)N[C@H](CC(C)C)C(=O)N1CCC[C@H]1C(=O)N1CCC[C@H]1C(=O)N[C@H](C(=O)N[C@@H](CC(N)=O)C(=O)N[C@H](C(=O)NCC(=O)N[C@@H](CO)C(=O)N[C@@H](CC(N)=O)C(=O)N[C@H](C(=O)N[C@@H](Cc1ccc(O)cc1)C(N)=O)[C@@H](C)O)C(C)C)[C@@H](C)O
B5: Peptide 58 (SEQ ID NO: 58) (peptide)
peptide: K([γGlu-C18 diacid])KCNTATCATQRLANFLVHSS[Aib]NFGPILPPTNVGSNTP-NH2
modifications: disulfide 3-8; N-terminus assumed
SMILES: CC[C@H](C)[C@H](NC(=O)[C@@H]1CCCN1C(=O)CNC(=O)[C@H](Cc1ccccc1)NC(=O)[C@H](CC(N)=O)NC(=O)C(C)(C)NC(=O)[C@H](CO)NC(=O)[C@H](CO)NC(=O)[C@H](Cc1c[nH]cn1)NC(=O)[C@@H](NC(=O)[C@H](CC(C)C)NC(=O)[C@H](Cc1ccccc1)NC(=O)[C@H](CC(N)=O)NC(=O)[C@H](C)NC(=O)[C@H](CC(C)C)NC(=O)[C@H](CCCNC(=N)N)NC(=O)[C@H](CCC(N)=O)NC(=O)[C@@H](NC(=O)[C@H](C)NC(=O)[C@@H]1CSSC[C@H](NC(=O)[C@H](CCCCN)NC(=O)[C@@H](N)CCCCNC(=O)CC[C@H](NC(=O)CCCCCCCCCCCCCCCCC(=O)O)C(=O)O)C(=O)N[C@@H](CC(N)=O)C(=O)N[C@@H]([C@@H](C)O)C(=O)N[C@@H](C)C(=O)N[C@@H]([C@@H](C)O)C(=O)N1)[C@@H](C)O)C(C)C)C(=O)N[C@@H](CC(C)C)C(=O)N1CCC[C@H]1C(=O)N1CCC[C@H]1C(=O)N[C@H](C(=O)N[C@@H](CC(N)=O)C(=O)N[C@H](C(=O)NCC(=O)N[C@@H](CO)C(=O)N[C@@H](CC(N)=O)C(=O)N[C@H](C(=O)N1CCC[C@H]1C(N)=O)[C@@H](C)O)C(C)C)[C@@H](C)O
B6: Peptide 61 (SEQ ID NO: 61) (peptide)
peptide: K([γGlu-C18 diacid])CNTATCATQRLANFLVHSS[Aib]NFGP[dI]LPPTNVGSNTY-NH2
modifications: disulfide 2-7; N-terminus assumed
SMILES: CC[C@@H](C)[C@@H](NC(=O)[C@@H]1CCCN1C(=O)CNC(=O)[C@H](Cc1ccccc1)NC(=O)[C@H](CC(N)=O)NC(=O)C(C)(C)NC(=O)[C@H](CO)NC(=O)[C@H](CO)NC(=O)[C@H](Cc1c[nH]cn1)NC(=O)[C@@H](NC(=O)[C@H](CC(C)C)NC(=O)[C@H](Cc1ccccc1)NC(=O)[C@H](CC(N)=O)NC(=O)[C@H](C)NC(=O)[C@H](CC(C)C)NC(=O)[C@H](CCCNC(=N)N)NC(=O)[C@H](CCC(N)=O)NC(=O)[C@@H](NC(=O)[C@H](C)NC(=O)[C@@H]1CSSC[C@H](NC(=O)[C@@H](N)CCCCNC(=O)CC[C@H](NC(=O)CCCCCCCCCCCCCCCCC(=O)O)C(=O)O)C(=O)N[C@@H](CC(N)=O)C(=O)N[C@@H]([C@@H](C)O)C(=O)N[C@@H](C)C(=O)N[C@@H]([C@@H](C)O)C(=O)N1)[C@@H](C)O)C(C)C)C(=O)N[C@@H](CC(C)C)C(=O)N1CCC[C@H]1C(=O)N1CCC[C@H]1C(=O)N[C@H](C(=O)N[C@@H](CC(N)=O)C(=O)N[C@H](C(=O)NCC(=O)N[C@@H](CO)C(=O)N[C@@H](CC(N)=O)C(=O)N[C@H](C(=O)N[C@@H](Cc1ccc(O)cc1)C(N)=O)[C@@H](C)O)C(C)C)[C@@H](C)O

The binders below were run against T1, human calcitonin receptor (assay: cell-based or functional assay).

Binder | EC50 (cAMP production) [nM]
B1 | 1.03
B2 | 7.25
B3 | 0.375
B4 | 0.809
B5 | 0.065
B6 | 0.654

These binders were tested against T2, human amylin receptor (calcitonin …) (assay: cell-based or functional assay).

Binder | EC50 (cAMP production) [nM] | Ratio (EC50 hCTR / EC50 hAMYR3)
B1 | 0.096 | 11
B2 | 0.167 | 43
B3 | 0.076 | 5
B4 | 0.157 | 5
B5 | 0.071 | 1
B6 | 0.099 | 7
